Experiments:
[1] = tested on: RsuA G127C-Cy5 (Escherichia coli); test: FRET; settings: 4 mM Mg2+, FRET: 80 mM K-Hepes pH 7.6, 330 mM KCl, 0-20 mM MgCl2, 2 nM RNA folded at 37 C. Filter binding: 80 mM K-Hepes pH 7.6, 50 mM KCl, 4 mM MgCl2, 6 mM …; for binding signal: scale: fold higher affinity than wild type
[2] = tested on: RsuAΔN (S4-like domain truncation) (Escherichia coli); test: filter binding; settings: 4 mM Mg2+; fit 0-15 uM; FRET: 80 mM K-Hepes pH 7.6, 330 mM KCl, 0-20 mM MgCl2, 2 nM RNA folded at 37 C. Filter binding: 80 mM K-Hepes pH 7.6, 50 mM KCl, 4 mM MgCl2, 6 mM …
[3] = tested on: RsuA wild type (Escherichia coli); test: filter binding; settings: 4 mM Mg2+; fit 0-2 uM, bound fraction falls above 2 uM; FRET: 80 mM K-Hepes pH 7.6, 330 mM KCl, 0-20 mM MgCl2, 2 nM RNA folded at 37 C. Filter binding: 80 mM K-Hepes pH 7.6, 50 mM KCl, 4 mM MgCl2, 6 mM …

16S 5'-domain G505C was tested, and the binding signal [1] was over 30.
16S 5'-domain rRNA (filter binding) was tested, and the Kd [2] was 57 nM and the Kd [3] was 12 nM.
16S 5'-domain G505C:G506C showed a binding signal [1] of over 30.
For 16S 5'-domain C507G, the binding signal (fold lower Kd than wild type (3.9 nM)) [1] was 390.

Source: paper PMC7356742
